The assay addresses HLA-DRα (human). Conditions: scale: % of surface expression with wild type Ii.

In the case of Ii M91G mutant (natural protein), the cell surface expression of DRA.DPB1*0401 co-expressed with Ii M91G (flow cytometry, mAb 2.06) worked out at 60.

(Values after article PMC3887193.)
